The results in this text go back to patent US11833164B2, “Methods of treating Fabry disease in patients having a mutation in the GLA gene” (Amicus Therapeutics, Inc., priority 2019, dated 2023).

Positions count from the first letter of the chain named. In names and notes the source's numbering stands.

To fix the notation:
B1: A181V (protein)
chain: MQLRNPELHLGCALALRFLALVSWDIPGARALDNGLARTPTMGWLHWERFMCNLDCQEEPDSCISEKLFMEMAELMVSEGWKDAGYEYLCIDDCWMAPQRDSEGRLQADPQRFPHGIRQLANYVHSKGLKLGIYADVGNKTCAGFPGSFGYYDIDAQTFADWGVDLLKFDGCYCDSLENLVDGYKHMSLALNRTGRSIVYSCEWPLYMWPFQKPNYTEIRQYCNHWRNFADIDDSWKSIKSILDWTSFNQERIVDVAGPGGWNDPDMLVIGNFGLSWNQQVTQMALWAIMAAPLFMSNDLRHISPQAKALLQDKDVIAINQDPLGKQGYQLRQGDNFEVWERPLSGLAWAVAMINRQEIGGPRSYTIAVASLGKGVACNPACFITQLLPVKRKLGFYEWTSRLRSHINPTGTVLLQLENTMQMSLKDLL
B2: Y184S (protein)
chain: B1 chain with V181A, Y184S
B3: D182A (protein)
chain: B1 chain with V181A, D182A
B4: H186Y (protein)
chain: B1 chain with V181A, H186Y
B5: K185N (protein)
chain: B1 chain with V181A, K185N
B6: H186L (protein)
chain: B1 chain with V181A, H186L
B7: D182Y (protein)
chain: B1 chain with V181A, D182Y
B8: K185M (protein)
chain: B1 chain with V181A, K185M
B9: H186N (protein)
chain: B1 chain with V181A, H186N
B10: Y184F (protein)
chain: B1 chain with V181A, Y184F
B11: Y184H (protein)
chain: B1 chain with V181A, Y184H
B12: K185Q (protein)
chain: B1 chain with V181A, K185Q
B13: H186D (protein)
chain: B1 chain with V181A, H186D
B14: K185T (protein)
chain: B1 chain with V181A, K185T
B15: D182E (protein)
chain: B1 chain with V181A, D182E
B16: H186Q (protein)
chain: B1 chain with V181A, H186Q
B17: D182V (protein)
chain: B1 chain with V181A, D182V
B18: M187L (protein)
chain: B1 chain with V181A, M187L

The first experiment has as its system mutant form of α-Gal A expressed in HEK-293 cells. The experiment in a line: HEK assay (GLP HEK / Migalastat Amenability Assay): α-Gal A activity in lysates of transiently transfected HEK-293 cells incubated with or without 10 μM migalastat. Type of experiment: cell-based, human. As to conditions: 10 μM migalastat versus baseline. In short, it runs like this:
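HEK-293 cells transiently transfected with mutant α-Gal A and incubated with or without 10 μM migalastat; lysate activity given as nmol free 4-MU released per mg protein per hour. Values are mean±SEM.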
With B1, the “Absolute increase (% WT)” value amounted to 14.2 % WT.

As to B2, the “Absolute increase (% WT)” value came out at 25.2 % WT.

B3: the “Absolute increase (% WT)” value came to 31.8 % WT.

As to B4, the “Absolute increase (% WT)” value is on record as 39.8 % WT.

Consider B5, for which the “Absolute increase (% WT)” value was determined as 22.5 % WT.

B6: the “Absolute increase (% WT)” value is 27.1 % WT.

With B7, the “Absolute increase (% WT)” value is 31.9 % WT.

For the molecule B8, the “Absolute increase (% WT)” value was 27.8 % WT.

On to B9, for which the “Absolute increase (% WT)” value came to 26.8 % WT.

Take B10: the “Absolute increase (% WT)” value was 31.8 % WT.

Consider B11, for which the “Absolute increase (% WT)” value was determined as 18.4 % WT.

As to B12, the “Absolute increase (% WT)” value turned out to be 30.9 % WT.

In the case of B13, the “Absolute increase (% WT)” value is 18.2 % WT.

As for B14, the “Absolute increase (% WT)” value stood at 19.0 % WT.

On to B15, for which the “Absolute increase (% WT)” value is 32.3 % WT.

In the case of B16, the “Absolute increase (% WT)” value was determined as 28.5 % WT.

Regarding B17, the “Absolute increase (% WT)” value turned out to be 44.7 % WT.

As to B18, the “Absolute increase (% WT)” value stood at 29.2 % WT.

Staying with this experiment, now noted: 10 μM migalastat α-Gal A activity relative to baseline.
On to B1, for which the Relative increase was 1.2.

With B2, the Relative increase is 2.7.

B3 showed a Relative increase of 1.3.

For the molecule B4, the Relative increase is recorded as 1.4.

B5 gave a Relative increase of 12.7.

For the molecule B6, the Relative increase is 1.3.

Regarding B7, the Relative increase is recorded as 1.4.

B8 showed a Relative increase of 1.3.

The molecule B9 yielded a Relative increase of 1.4.

With B10, the Relative increase was 1.4.

Molecule B11 showed a Relative increase of 1.6.

Molecule B12 returned a Relative increase of 1.7.

Molecule B13 showed a Relative increase of 1.3.

B14 had a Relative increase of 1.2.

B15 returned a Relative increase of 1.4.

In turn, B16 registered a Relative increase of 1.4.

In turn, B17 returned a Relative increase of 1.6.

B18 returned a Relative increase of 6.7.

The experiment is the same for the next values; noted with them: 10 μM migalastat, 5 days; percentage of baseline wild-type α-Gal A activity; mean ± SEM.
With B1, the “10 μM migalastat α-Gal A activity (% WT)” value was 93.2 ± 5.3 % WT.

Take B2: the “10 μM migalastat α-Gal A activity (% WT)” value came to 40.6 ± 1.6 % WT.

Consider B3, for which the “10 μM migalastat α-Gal A activity (% WT)” value came out at 133.3 ± 8.2 % WT.

In the case of B4, the “10 μM migalastat α-Gal A activity (% WT)” value was determined as 123.6 ± 8.9 % WT.

Regarding B5, the “10 μM migalastat α-Gal A activity (% WT)” value amounted to 24.4 ± 1.9 % WT.

For B6, the “10 μM migalastat α-Gal A activity (% WT)” value is recorded as 97.5 ± 8.2 % WT.

As for B7, the “10 μM migalastat α-Gal A activity (% WT)” value was found to be 116.5 ± 6.4 % WT.

As for B8, the “10 μM migalastat α-Gal A activity (% WT)” value was 102.9 ± 9 % WT.

For the molecule B9, the “10 μM migalastat α-Gal A activity (% WT)” value is 90.3 ± 5.8 % WT.

On to B10, for which the “10 μM migalastat α-Gal A activity (% WT)” value is recorded as 109.7 ± 5.8 % WT.

Take B11: the “10 μM migalastat α-Gal A activity (% WT)” value was found to be 48.6 ± 3.5 % WT.

Take B12: the “10 μM migalastat α-Gal A activity (% WT)” value is listed as 74.5 ± 2.9 % WT.

B13: the “10 μM migalastat α-Gal A activity (% WT)” value came out at 78.2 ± 5.2 % WT.

On to B14, for which the “10 μM migalastat α-Gal A activity (% WT)” value is on record as 92.6 ± 7.8 % WT.

As for B15, the “10 μM migalastat α-Gal A activity (% WT)” value is reported as 117.1 ± 4.5 % WT.

Regarding B16, the “10 μM migalastat α-Gal A activity (% WT)” value is on record as 105.3 ± 7 % WT.

B17: the “10 μM migalastat α-Gal A activity (% WT)” value worked out at 124.8 ± 6.9 % WT.

As to B18, the “10 μM migalastat α-Gal A activity (% WT)” value is reported as 34.5 ± 1.9 % WT.

The experiment is the same for the next values; noted with them: absence of migalastat; percentage of baseline wild-type α-Gal A activity; mean ± SEM.
Take B1: the “Baseline α-Gal A activity (% WT)” value was determined as 79.1 ± 3.5 % WT.

On to B2, for which the “Baseline α-Gal A activity (% WT)” value was determined as 15.4 ± 1 % WT.

As to B3, the “Baseline α-Gal A activity (% WT)” value is 101.5 ± 5.7 % WT.

As to B4, the “Baseline α-Gal A activity (% WT)” value stood at 83.8 ± 4.5 % WT.

With B5, the “Baseline α-Gal A activity (% WT)” value stood at 1.9 ± 0.1 % WT.

Take B6: the “Baseline α-Gal A activity (% WT)” value is 70.4 ± 3.4 % WT.

B7: the “Baseline α-Gal A activity (% WT)” value came to 84.7 ± 4.1 % WT.

On to B8, for which the “Baseline α-Gal A activity (% WT)” value is 75.1 ± 4.6 % WT.

With B9, the “Baseline α-Gal A activity (% WT)” value amounted to 63.5 ± 3.1 % WT.

Take B10: the “Baseline α-Gal A activity (% WT)” value worked out at 77.9 ± 4.4 % WT.

B11: the “Baseline α-Gal A activity (% WT)” value stood at 30.2 ± 2.9 % WT.

On to B12, for which the “Baseline α-Gal A activity (% WT)” value amounted to 43.6 ± 2.2 % WT.

As for B13, the “Baseline α-Gal A activity (% WT)” value is listed as 60 ± 4.1 % WT.

As to B14, the “Baseline α-Gal A activity (% WT)” value came to 73.6 ± 4.4 % WT.

B15: the “Baseline α-Gal A activity (% WT)” value turned out to be 84.8 ± 4 % WT.

Turning to B16, the “Baseline α-Gal A activity (% WT)” value turned out to be 76.9 ± 4.3 % WT.

Turning to B17, the “Baseline α-Gal A activity (% WT)” value was 80.2 ± 4.2 % WT.

In the case of B18, the “Baseline α-Gal A activity (% WT)” value is listed as 5.3 ± 0.2 % WT.

The same experiment, now with this note: lysates of HEK-293 cells transfected with the mutant form, incubated 5 days in the absence of migalastat; mean ± SEM.
Turning to B1, the “Baseline α-Gal A activity” value came to 26667 ± 1945 nmol/mg/h.

Turning to B2, the “Baseline α-Gal A activity” value came to 5213 ± 371 nmol/mg/h.

On to B3, for which the “Baseline α-Gal A activity” value turned out to be 33673 ± 2886 nmol/mg/h.

Consider B4, for which the “Baseline α-Gal A activity” value was 37644 ± 2421 nmol/mg/h.

B5: the “Baseline α-Gal A activity” value came out at 833 ± 38 nmol/mg/h.

In the case of B6, the “Baseline α-Gal A activity” value is 31615 ± 1833 nmol/mg/h.

B7: the “Baseline α-Gal A activity” value came out at 28377 ± 2226 nmol/mg/h.

On to B8, for which the “Baseline α-Gal A activity” value was determined as 33484 ± 2151 nmol/mg/h.

As for B9, the “Baseline α-Gal A activity” value is 28175 ± 1462 nmol/mg/h.

Take B10: the “Baseline α-Gal A activity” value turned out to be 26088 ± 1334 nmol/mg/h.

Consider B11, for which the “Baseline α-Gal A activity” value is 10980 ± 867 nmol/mg/h.

Turning to B12, the “Baseline α-Gal A activity” value came out at 14992 ± 947 nmol/mg/h.

As to B13, the “Baseline α-Gal A activity” value is 26924 ± 2047 nmol/mg/h.

For the molecule B14, the “Baseline α-Gal A activity” value was determined as 32028 ± 1167 nmol/mg/h.

Turning to B15, the “Baseline α-Gal A activity” value turned out to be 28082 ± 2023 nmol/mg/h.

As for B16, the “Baseline α-Gal A activity” value is 28845 ± 2365 nmol/mg/h.

Regarding B17, the “Baseline α-Gal A activity” value turned out to be 26881 ± 2166 nmol/mg/h.

Turning to B18, the “Baseline α-Gal A activity” value worked out at 1924 ± 64 nmol/mg/h.

Still in this experiment, the particulars now being: lysates of HEK-293 cells transfected with the mutant form, incubated 5 days with 10 μM migalastat; mean ± SEM.
For the molecule B1, the “10 μM migalastat α-Gal A activity” value was 32358 ± 2863 nmol/mg/h.

In the case of B2, the “10 μM migalastat α-Gal A activity” value is 13965 ± 799 nmol/mg/h.

On to B3, for which the “10 μM migalastat α-Gal A activity” value amounted to 44436 ± 3828 nmol/mg/h.

On to B4, for which the “10 μM migalastat α-Gal A activity” value worked out at 53613 ± 2581 nmol/mg/h.

As for B5, the “10 μM migalastat α-Gal A activity” value came out at 10540 ± 618 nmol/mg/h.

Turning to B6, the “10 μM migalastat α-Gal A activity” value turned out to be 42145 ± 2540 nmol/mg/h.

As for B7, the “10 μM migalastat α-Gal A activity” value worked out at 39247 ± 3250 nmol/mg/h.

With B8, the “10 μM migalastat α-Gal A activity” value was 44387 ± 2696 nmol/mg/h.

Turning to B9, the “10 μM migalastat α-Gal A activity” value amounted to 39509 ± 1885 nmol/mg/h.

B10: the “10 μM migalastat α-Gal A activity” value was 36815 ± 2009 nmol/mg/h.

Regarding B11, the “10 μM migalastat α-Gal A activity” value amounted to 17894 ± 1145 nmol/mg/h.

With B12, the “10 μM migalastat α-Gal A activity” value was found to be 25543 ± 1463 nmol/mg/h.

Regarding B13, the “10 μM migalastat α-Gal A activity” value was 34055 ± 1657 nmol/mg/h.

B14: the “10 μM migalastat α-Gal A activity” value turned out to be 39805 ± 2259 nmol/mg/h.

On to B15, for which the “10 μM migalastat α-Gal A activity” value stood at 38956 ± 2806 nmol/mg/h.

Take B16: the “10 μM migalastat α-Gal A activity” value stood at 38865 ± 2966 nmol/mg/h.

B17: the “10 μM migalastat α-Gal A activity” value turned out to be 42107 ± 3524 nmol/mg/h.

With B18, the “10 μM migalastat α-Gal A activity” value was 12810 ± 929 nmol/mg/h.
